{"source": "paper PMC6680207", "about": "“ZmpTAC12 binds single‐stranded nucleic acids and is essential for accumulation of the plastid‐encoded polymerase complex in maize”", "key": {"rMBP-pTAC12 (ZmpTAC12) [1]": {"target": "T1, rMBP-pTAC12 (ZmpTAC12) (Zea mays, UniProt B4FZ81 72-555)", "T1 sequence": "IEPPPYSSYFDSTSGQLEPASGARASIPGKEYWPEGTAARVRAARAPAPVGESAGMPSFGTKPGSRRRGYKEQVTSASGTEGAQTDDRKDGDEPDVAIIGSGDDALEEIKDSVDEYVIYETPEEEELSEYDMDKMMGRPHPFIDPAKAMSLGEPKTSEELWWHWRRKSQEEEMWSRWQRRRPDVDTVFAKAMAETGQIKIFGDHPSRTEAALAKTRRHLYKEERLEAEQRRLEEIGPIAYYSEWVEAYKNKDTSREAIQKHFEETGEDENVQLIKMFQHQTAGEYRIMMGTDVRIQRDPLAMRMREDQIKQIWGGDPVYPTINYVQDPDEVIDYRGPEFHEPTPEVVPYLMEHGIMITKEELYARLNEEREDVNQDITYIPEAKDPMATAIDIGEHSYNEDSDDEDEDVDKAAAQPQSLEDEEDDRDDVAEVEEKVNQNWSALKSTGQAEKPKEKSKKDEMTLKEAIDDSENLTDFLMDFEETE", "experiment": "EMSA; 1 ug/ul heparin; c. 100 pM probe; EMSA; 1 ug/ul heparin (ssRNA assays), c. 100 pM radiolabeled 50mer; buffer, salt, pH and temperature not in the material", "conditions": "protein: recombinant; tags: N-terminal MBP fusion; label: radiolabeled"}, "rMBP-pTAC12 (ZmpTAC12) [2]": {"target": "T1, rMBP-pTAC12 (ZmpTAC12)", "experiment": "EMSA; c. 100 pM probe; EMSA; 1 ug/ul heparin (ssRNA assays), c. 100 pM radiolabeled 50mer; buffer, salt, pH and temperature not in the material", "conditions": "protein: recombinant; tags: N-terminal MBP fusion; label: 5' end radiolabel (T4 PNK)"}, "rMBP-pTAC12 (ZmpTAC12) [3]": {"target": "T1, rMBP-pTAC12 (ZmpTAC12)", "experiment": "EMSA; 100 pM dsDNA; EMSA; 1 ug/ul heparin (ssRNA assays), c. 100 pM radiolabeled 50mer; buffer, salt, pH and temperature not in the material", "conditions": "protein: recombinant; tags: N-terminal MBP fusion; label: 5' end radiolabel (T4 PNK); blunt"}}}
{"binder": "psaAB-150 ssRNA (ssRNA) RNA: GGUAAUUGCUCCAGUGAAUAACUAAAAAAAAAAAUAGAAGGACGGUAGAUAG", "values": [{"measurement": "binding result", "setting": "rMBP-pTAC12 (ZmpTAC12) [1]", "result": "binds"}]}
{"binder": "TAATTGCTCCAGTGAATAACTAAAAAAAAAAATAGAAGGACGGTAGATAG (ssDNA)", "note": "[psaAB-150 ssDNA]", "values": [{"measurement": "binding result", "setting": "rMBP-pTAC12 (ZmpTAC12) [2]", "result": "binds"}]}
{"binder": "psaAB-150 dsDNA (dsDNA) DNA 1: TAATTGCTCCAGTGAATAACTAAAAAAAAAAATAGAAGGACGGTAGATAG DNA 2: CTATCTACCGTCCTTCTATTTTTTTTTTTAGTTATTCACTGGAGCAATTA", "values": [{"measurement": "binding result", "setting": "rMBP-pTAC12 (ZmpTAC12) [3]", "result": "no binding"}]}
